PMC10770396, “Dimerization of the 4Ig isoform of B7-H3 in tumor cells mediates enhanced proliferation and tumorigenic signaling” (Communications Biology, 2024)
Blank lines part the entries; values can stand above or below the binder they belong to.

How the values were obtained:
[1] = target: T1, 4Ig-B7-H3-mEGFP (human), Q5ZPR3; experiment: FRET or BRET; homo-FRET fluorescence lifetime imaging (FRET-FLIM, TCSPC) of mEGFP fusions in fixed, transiently transfected HeLa CD276-/- KO cells; bi-exponential fit; settings: remark: other sources report otherwise
T1 chain: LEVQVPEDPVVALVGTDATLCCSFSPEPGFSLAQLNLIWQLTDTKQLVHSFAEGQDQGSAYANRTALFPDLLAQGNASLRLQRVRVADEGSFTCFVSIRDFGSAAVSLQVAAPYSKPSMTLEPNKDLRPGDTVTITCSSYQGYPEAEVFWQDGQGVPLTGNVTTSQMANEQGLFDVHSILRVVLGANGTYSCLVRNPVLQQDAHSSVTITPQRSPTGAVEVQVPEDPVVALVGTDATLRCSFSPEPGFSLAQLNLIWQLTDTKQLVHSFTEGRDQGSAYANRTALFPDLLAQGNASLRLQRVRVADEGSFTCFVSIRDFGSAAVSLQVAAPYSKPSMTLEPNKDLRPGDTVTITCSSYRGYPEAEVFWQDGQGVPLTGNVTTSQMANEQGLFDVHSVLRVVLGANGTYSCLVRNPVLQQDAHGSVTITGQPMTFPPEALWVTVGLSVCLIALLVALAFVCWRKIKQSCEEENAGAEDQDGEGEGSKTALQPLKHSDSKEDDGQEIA

[2] = target: the molecule itself; experiment: SEC; analytical SEC, Superdex 200 10/300, PBS + 0.1 M NaCl + 0.05% NaN3, flow 0.5 ml/min, protein at 100 μg/mL; apparent molecular weight from a calibration curve; monomer to dimer

mEGFP fluorescence lifetime, bi-exponential fit, first fraction [1]: 2.57 ns
mEGFP fluorescence lifetime, bi-exponential fit, second fraction [1]: 1.33 ns
B1: 4Ig-B7-H3-mEGFP, Q5ZPR3 29-534 (natural protein)
chain: T1 chain

B2: murine 2Ig-B7-H3 extracellular domain (amino acids: Val29 – Phe244), recombinant (domain or fragment, UniProt Q8VE98 29-244, looked up)
chain: VEVQVSEDPVVALVDTDATLRCSFSPEPGFSLAQLNLIWQLTDTKQLVHSFTEGRDQGSAYSNRTALFPDLLVQGNASLRLQRVRVTDEGSYTCFVSIQDFDSAAVSLQVAAPYSKPSMTLEPNKDLRPGNMVTITCSSYQGYPEAEVFWKDGQGVPLTGNVTTSQMANERGLFDVHSVLRVVLGANGTYSCLVRNPVLQQDAHGSVTITGQPLTF
notes: B7-H3 (CD276), murine, 2Ig isoform, extracellular domain, residues Val29 – Phe244; also called murine B7-H3; source: bought: R&D Systems (functionally active recombinant protein)
stoichiometry N [2]: 2

B3: human 4Ig-B7-H3 extracellular domain (amino acids: Gly27 – Thr461), recombinant (domain or fragment, UniProt Q5ZPR3 27-461, looked up)
chain: GALEVQVPEDPVVALVGTDATLCCSFSPEPGFSLAQLNLIWQLTDTKQLVHSFAEGQDQGSAYANRTALFPDLLAQGNASLRLQRVRVADEGSFTCFVSIRDFGSAAVSLQVAAPYSKPSMTLEPNKDLRPGDTVTITCSSYQGYPEAEVFWQDGQGVPLTGNVTTSQMANEQGLFDVHSILRVVLGANGTYSCLVRNPVLQQDAHSSVTITPQRSPTGAVEVQVPEDPVVALVGTDATLRCSFSPEPGFSLAQLNLIWQLTDTKQLVHSFTEGRDQGSAYANRTALFPDLLAQGNASLRLQRVRVADEGSFTCFVSIRDFGSAAVSLQVAAPYSKPSMTLEPNKDLRPGDTVTITCSSYRGYPEAEVFWQDGQGVPLTGNVTTSQMANEQGLFDVHSVLRVVLGANGTYSCLVRNPVLQQDAHGSVTITGQPMT
notes: B7-H3 (CD276), human, 4Ig isoform, extracellular domain, residues Gly27 – Thr461; commercial proteins of this kind often carry a C-terminal His tag (surmise); also called CD276; source: bought: R&D Systems (functionally active recombinant protein)
stoichiometry N [2]: 2
